# Results published in the supplement of paper PMC12764529.
# ± gives the half width of the 95% confidence interval.
# Legend:
# [1] = folding stability dG unfold from trypsin proteolysis; higher = more stable
# How it was run: (§1)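 How resistant each design was to proteolysis was captured as K50, inferred by Bayesian fitting of sequencing counts. Unfolding free energy was then derived relative to a sequence-predicted unfolded-state K50 and a shared folded-state K50, per protease or combined. Digestion used trypsin and chymotrypsin at 11 threefold-diluted concentrations plus a no-protease condition, on mini-proteins under 80 residues without cysteine in a PA-tagged cDNA display construct. Designs were kept only when AlphaFold2 dimer inter-PAE was above 15.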
# [2] = folding stability dG unfold from chymotrypsin proteolysis; higher = more stable
# How it was run: as §1
# [3] = folding stability dG unfold (combined trypsin and chymotrypsin); higher = more stable
# How it was run: as §1
Sequence,folding stability dG unfold [1],folding stability dG unfold [2],folding stability dG unfold [3]
SAGGSAGGPANKKYLLVADAEVDPETGTVKVTVEYPNGKKVEFTFPAKNFHPDEKVLVPVVVTDSAGGSAGG [r6_768_TrMRF],1.02 ± 0.052 kcal/mol,0.67 ± 0.17 kcal/mol,0.86 ± 0.1 kcal/mol
SAGGKVKVEIDPKTIKVTFYDEKGKKIGEIEIEVKPLPIVIENIPLEDIEALKEKFPDIPIIINPDNISAGG [r13_235_TrMRF],2.47 ± 0.22 kcal/mol,1.73 ± 0.17 kcal/mol,1.83 ± 0.2 kcal/mol
SAGGSAGGSAPRPIEIMFPWDSPEDAHEEAEEIARTFAQEDNIKVKVEYYPREGWVKVKIRVSAGGSAGGSA [r18_368_TrROS],1.21 ± 0.085 kcal/mol,1.57 ± 0.34 kcal/mol,1.38 ± 0.21 kcal/mol
SAGGSAGGSAGGVEELKKALEKAGFKVVKVEVTEVKNPETKETTTKITVTLEDGSKLTITSAGGSAGGSAGG [r7_337_TrROS_Hall],3.95 ± 0.2 kcal/mol,3.63 ± 0.058 kcal/mol,3.72 ± 0.11 kcal/mol
SAGGKKKVKITKITSIDKKNGVITLEIEDPKTKKKYKIKAKVVKLKNGKKLLVIEIEVNGKKIKIVFKSAGG [r13_993_TrROS_Hall],2.49 ± 0.15 kcal/mol,4.23 ± 0.16 kcal/mol,3.81 ± 0.47 kcal/mol
SAGGKLTITVKVNENGELIATVEITEVVENAKPGDVLTVKAKVVNPKTKETKEIEAKIKVENGKLVLESAGG [r13_208_TrROS_Hall],2.1 ± 0.077 kcal/mol,2.33 ± 0.069 kcal/mol,2.16 ± 0.12 kcal/mol
SAGNIKIEVEELGPGWYVIKVEIPYDSPEQMLDMIKDIIRDFFGEPVKIDEVEIDPDEGWIEKTIRIPLSAG [r5_810_TrROS],1.58 ± 0.067 kcal/mol,1.64 ± 0.07 kcal/mol,1.67 ± 0.12 kcal/mol
SAGGSAGGMKIVVEEVDEEKGYVRIRIEDPETKEEKEIVVKVKTPEEAEALAKKLAEAGYEVETSAGGSAGG [r6_796_TrROS_Hall],1.27 ± 0.045 kcal/mol,1.79 ± 0.028 kcal/mol,1.61 ± 0.087 kcal/mol
SAGGVERDPPGKNVYYVEIEIKIEIRDPNNGKPLEIPVPITYPFKSPADALEQMRRQARNLAEKLLNSAGGS [r16_624_TrROS],1.78 ± 0.041 kcal/mol,2.18 ± 0.1 kcal/mol,2.03 ± 0.13 kcal/mol
SAGGSAGGSAGGGMRTVTTVSSFTFEKNGGEKFVTTTVVVPLYVPPRVFPPPENIELLLLSAGGSAGGSAGG [r17_454_JUSTAS],2.45 ± 0.33 kcal/mol,1.36 ± 0.27 kcal/mol,1.61 ± 0.26 kcal/mol
SAGGSAGGSAGGSVPSDVTVSILEIEPKEDKYLVLLRVPENGTLIEREFESLEEAKELLSAGGSAGGSAGGS [r10_1038_JUSTAS],1.16 ± 0.033 kcal/mol,-0.51 ± 0.21 kcal/mol,0.645 ± 0.088 kcal/mol
SAGGSAGGMPTLVVLREVAEKLEEGQRVRVRFRIPGTDEWVEAEVPINDPELVINFENPEVEEASAGGSAGG [r6_401_TrMRF],1.06 ± 0.042 kcal/mol,1.48 ± 0.097 kcal/mol,1.33 ± 0.12 kcal/mol
SAGGSAGGSAGGDNLMIMIEIEPVKTETRMDPDGKMETRTEYRIKIEIIPPPNPDDPENNSAGGSAGGSAGG [r7_523_TrROS],1.55 ± 0.11 kcal/mol,2.63 ± 0.049 kcal/mol,2.28 ± 0.17 kcal/mol
SAGGSAGGSAGGSPLKIKIVEVKEHKNPDGKPRRRIMMRFPNGRTLHIDMNGNLEIMPASAGGSAGGSAGGS [r4_111_TrROS],0.0795 ± 0.19 kcal/mol,0.176 ± 0.32 kcal/mol,0.188 ± 0.22 kcal/mol
SAGGSAGGSAGPEKTVTLRVKITNADGQEQTLELTAETEEEALAALRALLPPGAKVEIEPSAGGSAGGSAGG [r11_671_TrROS_Hall],1.99 ± 0.067 kcal/mol,3.66 ± 0.07 kcal/mol,3.35 ± 0.087 kcal/mol
SAGGSAGGSAMKIPPGETVEEVELSFLPNGEIILKKTTITKKGNTTTVETEVKIVKPDVPLSAGGSAGGSAG [r3_49_JUSTAS],0.877 ± 0.027 kcal/mol,0.701 ± 0.067 kcal/mol,0.836 ± 0.1 kcal/mol
SAGGSAAPPVTVEVLPDGRIVITRGDAVASSVTPVPPDATITATFPATGETVTITRRAPEVTVTPASAGGSA [r15_235_JUSTAS],-0.616 ± 0.29 kcal/mol,1.19 ± 0.017 kcal/mol,0.835 ± 0.097 kcal/mol
SAGGSAGGSAEIKIEYTLAPDGTLYVKVEIPNPETGETLVLEGPFDSLEEAIEVAKELEKESAGGSAGGSAG [r3_174_TrMRF],2.29 ± 0.23 kcal/mol,2.77 ± 0.056 kcal/mol,2.68 ± 0.18 kcal/mol
SAGGSAMPKIEVTVYFPENGTETVEIHFPPGKVITGPLSLLEEIIESGIPKENISISYKTLSPSLTSAGGSA [r15_955_JUSTAS],1.64 ± 0.03 kcal/mol,1.05 ± 0.061 kcal/mol,1.37 ± 0.041 kcal/mol
SMRIVTEDGQELTIVLPKVPPNMTPEQLRKALEEAGVEVEEITFDEETGEVTVKIRFKDAEKAEEALKKASA [r9_1154_TrROS_Hall],1.51 ± 0.059 kcal/mol,0.957 ± 0.12 kcal/mol,1.21 ± 0.14 kcal/mol
SAGGSAGGAPILPEVKKIGFEKLPNGEYKVTIYVKGGKKLAEITFPPNTTIEQAVEDAIEALKSSAGGSAGG [r6_435_TrMRF],2.3 ± 0.063 kcal/mol,2.38 ± 0.048 kcal/mol,2.28 ± 0.091 kcal/mol
